# Measured values taken from patent US20140370026A1 (TRUSTEES OF PRINCETON UNIVERSITY, published 2014).
# T1: human CMV glycoprotein gM (UL100-coded) (human CMV, UniProt P16733 1-372)
# T1 sequence: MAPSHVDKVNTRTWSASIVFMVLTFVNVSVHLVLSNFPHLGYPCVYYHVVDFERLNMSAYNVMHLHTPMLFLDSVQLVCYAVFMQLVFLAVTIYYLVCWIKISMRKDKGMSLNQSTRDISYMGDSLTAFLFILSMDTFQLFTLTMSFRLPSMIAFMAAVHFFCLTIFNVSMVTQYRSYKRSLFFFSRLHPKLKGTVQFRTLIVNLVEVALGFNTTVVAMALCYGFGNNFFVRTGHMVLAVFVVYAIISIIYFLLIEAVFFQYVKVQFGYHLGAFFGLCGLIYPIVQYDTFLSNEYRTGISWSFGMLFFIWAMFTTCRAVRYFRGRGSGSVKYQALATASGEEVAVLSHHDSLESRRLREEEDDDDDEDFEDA
# B1: human CMV glycoprotein gO (UL74-coded) (other)
# chain: KVMSKALYNRPWRGLVLSKIGKYKLDQLKLEILRQLETTISTKYNVSKQPVKNLTMNMTEFPQYYILAGPIQNYSITYLWFDFYSTQLRKPAKYVYSQYNHTAKTITFRPPPCGTVPSMTCLSEMLNVSKRNDTGEQGCGNFTTFNPMFFNVPRWNTKLYVGPTKVNVDSQTIYFLGLTALLLRYAQRNCTHSFYLVNAMSRNLFRVPKYINGTKLKNTMRKLKRKQAPVKEQFEKKAKKTQSTTTPYFSYTTSAALNVTTNVTYSITTAARRVSTSTIAYRPDSSFMKSIMATQLRDLATWVYTTLRYRQNPFCEPSRNRTAVSEFMKNTHVLIRNETPYTIYGTLDMSSLYYNETMFVENKTASDSNKTTPTSPSMGFQRTFIDPLWDYLDSLLFLDEIRNFSLRSPTYVNLTPPEHRRAVNLSTLNSLWWWLQ
# B2: human CMV glycoprotein gN (UL73-coded) (other)
# chain: NNSSTSTSATTSKSSASVSTTKLTTVATTSATTTTTTTLSTTSTKLSSTTHDPNVMRRHANDDFYKAHCTSHMYELSLSSFAAWWTMLNALILMGAFCIVLRHCCFQNFTATTTKGY
# notes: also called ~60-kDa protein
# B3: human CMV pUL128 (other)
# chain: EECCEFINVNHPPERCYDFKMCNRFTVALRCPDGEVCYSPEKTAEIRGIVTTMTHSLTRQVVHNKLTSCNYNPLYLEADGRIRCGKVNDKAQYLLGAAGSVPYRWINLEYDKITRIVGLDQYLESVKKHKRLDVCRAKMGYMLQ
# notes: also called UL128 protein; 16-kDa protein
# Key:
# human CMV pUL130 = target: T2, human CMV pUL130 (human CMV, UniProt P16772 26-214); assay: co-immunoprecipitation with anti-gO from radiolabeled infected MRC-5 lysates (FIG. 3A)
# T2 construct: also called UL130 protein; 33- to 35-kDa protein
# [1] = target: human CMV glycoprotein gH (UL75-coded) (human CMV, UniProt P12824 24-743); assay: co-immunoprecipitation with anti-gH 14-4b
# [2] = target: T1, human CMV glycoprotein gM (UL100-coded); assay: co-immunoprecipitation with anti-gM IMP91-3/1
# [3] = target: B1; assay: co-immunoprecipitation with anti-gO from radiolabeled infected MRC-5 lysates (FIG. 3A)
binder,measurement,setting,value
B1,binding result,human CMV pUL130,no binding
same,binding result,[1],binds
B2,binding result,[2],binds
B3,binding result,[3],no binding
